# Test results as given in CN113045675A (BEIJING ROCK EDGE BIOTECHNOLOGY CO LTD, dated 2021).
# B1: BA125纳米抗体 (BA125 nanobody, VHH against CD22, C-terminal His tag) (VHH)
# VHH: QVQLVESGGGLVQPGGSLRLSCAASGSIFGSNTMGWFRQAPGQQRELVAAMSTLGRTSYAVSVKGRFTISRDNAKNTVYLQMNSLKPEDTAVYYCKYTGTTPRDIYWGLGTQVTVSS
# notes: also called 纳米抗体BA125克隆; BA125纳米抗体VHH区; not shown: C-terminal His tag
# Tests used:
# [1] = biological target: T1, CD22蛋白胞外段 (CD22 extracellular domain, C-terminal His tag) (human, UniProt P20273 20-687); test: SPR, Biacore T200; CD22 amine-coupled to a CM5 chip; screening of clones by affinity
# T1 construct: extracellular domain; also called CD22胞外段蛋白; CD22蛋白分子; not shown: C-terminal His tag
# T1 sequence (looked up): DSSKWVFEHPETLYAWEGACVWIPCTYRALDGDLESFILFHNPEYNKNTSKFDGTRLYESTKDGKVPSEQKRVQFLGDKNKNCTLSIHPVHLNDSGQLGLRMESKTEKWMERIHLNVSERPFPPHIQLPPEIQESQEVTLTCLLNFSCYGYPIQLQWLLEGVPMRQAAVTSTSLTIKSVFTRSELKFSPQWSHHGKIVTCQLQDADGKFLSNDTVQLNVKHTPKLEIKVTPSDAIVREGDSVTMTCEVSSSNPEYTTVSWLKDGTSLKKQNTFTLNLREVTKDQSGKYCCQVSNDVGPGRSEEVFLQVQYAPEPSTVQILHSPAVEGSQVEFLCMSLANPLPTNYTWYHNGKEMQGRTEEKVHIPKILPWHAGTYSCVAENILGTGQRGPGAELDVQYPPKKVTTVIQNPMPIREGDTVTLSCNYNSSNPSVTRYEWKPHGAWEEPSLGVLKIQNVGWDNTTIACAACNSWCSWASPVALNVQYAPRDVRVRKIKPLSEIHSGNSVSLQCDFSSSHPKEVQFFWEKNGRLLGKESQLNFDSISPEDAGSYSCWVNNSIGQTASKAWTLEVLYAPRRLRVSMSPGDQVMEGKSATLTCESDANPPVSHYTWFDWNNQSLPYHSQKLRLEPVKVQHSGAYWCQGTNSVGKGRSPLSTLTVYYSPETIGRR
# [2] = biological target: T1, CD22蛋白胞外段 (CD22 extracellular domain, …); test: SPR, Biacore T200; CD22 amine-coupled to a CM5 chip; nanobody at 2, 4, 8, 16 and 32 nM; curve fit
binder,measurement,setting,value
B1,Kd,[1],~10 nM
same,Kd,[2],9.47 nM
